Assay results: paper PMC3351107 (Cerebellum (London, England), 2009)

Assays:
[1] = target: T1, myo-inositol monophosphatase 1 (IMPA1), purified bovine brain (bovine, UniProt P20456 1-277); assay: cross-linking
T1 sequence (looked up): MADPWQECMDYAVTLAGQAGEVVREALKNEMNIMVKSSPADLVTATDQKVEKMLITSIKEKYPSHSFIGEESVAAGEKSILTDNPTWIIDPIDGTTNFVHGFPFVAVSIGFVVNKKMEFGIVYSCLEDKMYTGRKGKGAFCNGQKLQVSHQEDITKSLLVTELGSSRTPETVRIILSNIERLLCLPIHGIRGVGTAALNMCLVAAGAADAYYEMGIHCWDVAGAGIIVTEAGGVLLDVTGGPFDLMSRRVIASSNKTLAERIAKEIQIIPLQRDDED

cross-linking = target: the molecule itself; assay: cross-linking

B1: S100B, purified bovine brain (natural protein, UniProt P02638 1-92, looked up)
chain: MSELEKAVVALIDVFHQYSGREGDKHKLKKSELKELINNELSHFLEEIKEQEVVDKVMETLDSDGDGECDFQEFMAFVAMITTACHEFFEHE
- binding result [1]: binds
- binding result (cross-linking): binds
